Assay results reported in article PMC8924211 (Nature Communications, 2022).

Tests used:
Assay in all cases: AlphaScreen or HTRF; saturation binding: HEK293 cells transfected with SNAP-tagged receptor (WT or mutant) and labelled with SNAP-Lumi4-Tb, incubated with increasing concentrations of galanin-A2 in the presence or absence of 100 uM unlabeled galanin, 1 h at room temperature; HTRF ratio 665 nm/620 nm
Conditions in all cases: one partner purified
SNAP-GAL1R H112^3.29A = molecular target: T1, SNAP-GAL1R H112^3.29A (human, UniProt P47211 1-349, H112^3.29A, Lumi4-Tb on the SNAP tag)
T1 construct: also called H112A; source: HEK293, transfected, on cells; not shown: SNAP tag, N-terminal, kept
T1 sequence (looked up): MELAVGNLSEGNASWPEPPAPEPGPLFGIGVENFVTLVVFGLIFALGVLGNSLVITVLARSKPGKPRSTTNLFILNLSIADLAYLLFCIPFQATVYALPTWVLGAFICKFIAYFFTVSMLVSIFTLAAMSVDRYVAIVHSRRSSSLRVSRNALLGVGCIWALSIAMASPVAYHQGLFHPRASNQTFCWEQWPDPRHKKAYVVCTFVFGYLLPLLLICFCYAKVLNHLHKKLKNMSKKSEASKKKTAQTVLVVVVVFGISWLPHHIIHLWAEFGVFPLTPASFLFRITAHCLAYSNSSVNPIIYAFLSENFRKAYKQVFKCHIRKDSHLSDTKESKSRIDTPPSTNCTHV

SNAP-GAL1R R285^7.35A = molecular target: T2, SNAP-GAL1R R285^7.35A (human, UniProt P47211 1-349, R285^7.35A, Lumi4-Tb on the SNAP tag)
T2 construct: also called R285A; source: HEK293, transfected, on cells; not shown: SNAP tag, N-terminal, kept
T2 sequence (looked up): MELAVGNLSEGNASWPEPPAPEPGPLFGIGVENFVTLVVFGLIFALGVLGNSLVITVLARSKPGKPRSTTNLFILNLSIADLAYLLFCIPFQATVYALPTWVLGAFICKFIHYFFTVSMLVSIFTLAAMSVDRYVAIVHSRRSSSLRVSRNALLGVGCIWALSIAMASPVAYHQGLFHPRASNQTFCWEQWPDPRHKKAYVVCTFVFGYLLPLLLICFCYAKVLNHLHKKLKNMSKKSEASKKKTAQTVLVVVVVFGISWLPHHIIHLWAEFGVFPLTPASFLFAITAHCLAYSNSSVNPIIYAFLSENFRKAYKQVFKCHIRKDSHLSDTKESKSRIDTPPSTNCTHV

SNAP-GAL1R K197^5.35A = molecular target: T3, SNAP-GAL1R K197^5.35A (human, UniProt P47211 1-349, K197^5.35A, Lumi4-Tb on the SNAP tag)
T3 construct: also called K197A; source: HEK293, transfected, on cells; not shown: SNAP tag, N-terminal, kept
T3 sequence (looked up): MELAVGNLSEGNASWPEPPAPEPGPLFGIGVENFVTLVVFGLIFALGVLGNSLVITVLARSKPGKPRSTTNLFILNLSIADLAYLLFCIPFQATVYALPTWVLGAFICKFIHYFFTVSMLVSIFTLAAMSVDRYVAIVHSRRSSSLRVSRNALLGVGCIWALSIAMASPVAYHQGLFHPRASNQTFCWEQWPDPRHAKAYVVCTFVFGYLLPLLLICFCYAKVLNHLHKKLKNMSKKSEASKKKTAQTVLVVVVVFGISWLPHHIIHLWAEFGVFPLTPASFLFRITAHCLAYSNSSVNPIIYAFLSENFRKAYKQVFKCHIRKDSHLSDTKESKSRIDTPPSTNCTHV

SNAP-GAL1R I266^6.54A = molecular target: T4, SNAP-GAL1R I266^6.54A (human, UniProt P47211 1-349, I266^6.54A, Lumi4-Tb on the SNAP tag)
T4 construct: also called I266A; source: HEK293, transfected, on cells; not shown: SNAP tag, N-terminal, kept
T4 sequence (looked up): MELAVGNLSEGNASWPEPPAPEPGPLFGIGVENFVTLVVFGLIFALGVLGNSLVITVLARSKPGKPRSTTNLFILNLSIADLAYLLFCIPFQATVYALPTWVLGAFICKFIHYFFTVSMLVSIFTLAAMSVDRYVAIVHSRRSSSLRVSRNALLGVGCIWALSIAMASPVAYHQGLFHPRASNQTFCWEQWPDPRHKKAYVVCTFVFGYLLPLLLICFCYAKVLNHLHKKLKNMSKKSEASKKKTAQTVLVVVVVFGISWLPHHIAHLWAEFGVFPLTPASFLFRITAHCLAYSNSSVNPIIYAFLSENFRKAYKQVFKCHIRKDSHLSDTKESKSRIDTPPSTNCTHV

SNAP-GAL1R H263^6.51A = molecular target: T5, SNAP-GAL1R H263^6.51A (human, UniProt P47211 1-349, H263^6.51A, Lumi4-Tb on the SNAP tag)
T5 construct: also called H263A; source: HEK293, transfected, on cells; not shown: SNAP tag, N-terminal, kept
T5 sequence (looked up): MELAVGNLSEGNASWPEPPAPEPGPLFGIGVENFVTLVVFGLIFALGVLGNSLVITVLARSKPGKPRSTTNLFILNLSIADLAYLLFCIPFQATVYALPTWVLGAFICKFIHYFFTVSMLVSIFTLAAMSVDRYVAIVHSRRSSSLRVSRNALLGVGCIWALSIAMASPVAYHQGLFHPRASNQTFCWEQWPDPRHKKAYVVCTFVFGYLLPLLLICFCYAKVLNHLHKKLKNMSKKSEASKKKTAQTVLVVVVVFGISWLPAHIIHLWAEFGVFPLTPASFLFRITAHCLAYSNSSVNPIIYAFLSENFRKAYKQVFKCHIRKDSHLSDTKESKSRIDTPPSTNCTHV

B1: galanin-A2 (full-length galanin labeled with the dye A2 on an additional cysteine at the C-terminal end) (peptide)
peptide: GWTLNSAGYLLGPHAVGNHRSFSDKNGLTSC
modifications: dye A2 on the additional C-terminal cysteine
notes: numbers count on: the mature protein; additional cysteine at the C-terminal end of the peptide, carries the dye A2; source: synthetic peptide (synthesized by Vazyme, China)
SNAP-GAL1R H112^3.29A
  Kd: 59.8 nM
SNAP-GAL1R R285^7.35A
  Kd: 159 nM
SNAP-GAL1R K197^5.35A
  Kd: 159 nM
SNAP-GAL1R I266^6.54A
  Kd: 245 nM
SNAP-GAL1R H263^6.51A
  Kd: 213 nM
